# From publication PMC5825162
# Columns and labels:
# [1] = molecular target: KSHV gH/gL glycoprotein complex (gH-V5/gL-Flag), wild type (Kaposi's sarcoma-associated herpesvirus (KSHV)) (UniProt F5HAK9)
# [2] = molecular target: RRV gH/gL glycoprotein complex (gH-V5/gL-Flag), wild type (rhesus monkey rhadinovirus (RRV))
# Chain of UniProt F5HAK9 (F5HAK9 whole entry, looked up, one chain of several): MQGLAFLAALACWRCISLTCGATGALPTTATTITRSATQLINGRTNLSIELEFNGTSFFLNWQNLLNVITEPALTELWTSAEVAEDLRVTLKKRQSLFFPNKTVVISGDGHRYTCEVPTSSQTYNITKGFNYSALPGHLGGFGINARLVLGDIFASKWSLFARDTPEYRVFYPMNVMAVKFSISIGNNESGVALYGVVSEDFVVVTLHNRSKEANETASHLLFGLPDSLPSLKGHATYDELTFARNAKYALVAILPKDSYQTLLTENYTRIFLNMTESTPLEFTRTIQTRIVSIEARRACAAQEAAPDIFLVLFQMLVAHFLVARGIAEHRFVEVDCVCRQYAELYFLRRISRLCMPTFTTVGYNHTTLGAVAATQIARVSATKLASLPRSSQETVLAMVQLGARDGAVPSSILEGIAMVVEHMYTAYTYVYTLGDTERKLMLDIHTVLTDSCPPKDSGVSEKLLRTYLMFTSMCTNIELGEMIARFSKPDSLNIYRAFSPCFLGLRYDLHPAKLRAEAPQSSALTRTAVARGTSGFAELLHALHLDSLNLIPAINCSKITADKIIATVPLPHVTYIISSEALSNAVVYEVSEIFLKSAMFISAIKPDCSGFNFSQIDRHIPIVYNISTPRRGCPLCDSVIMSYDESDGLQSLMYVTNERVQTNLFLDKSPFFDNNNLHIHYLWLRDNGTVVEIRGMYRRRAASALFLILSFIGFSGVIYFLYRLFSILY
Molecule,"inhibition of KSHV wt infection of SLK cells (GFP, flow cytometry) after pre-incubation of the virus with soluble EphA2-Fc, dose series; gH/gL on virions [1] [%]","inhibition of RRV 26–95 wt infection of SLK cells (YFP, flow cytometry) after pre-incubation of the virus with soluble EphB3-Fc, dose series; gH/gL on virions [2] [%]"
soluble EphA2-Fc fusion construct comprising amino acids 25–534 of human EphA2 (from UniProt P29317-1 25-534),90,–
"Recombinant, human, soluble EphB3-Fc (Fc fusion) GCRALEETLMDTKWVTSELAWTSHPESGWEEVSGYDEAMNPIRTYQVCNVRESSQNNWLRTGFIWRRDVQRVYVELKFTVRDCNSIPNIPGSCKETFNLFYYEADSDVASASSPFWMENPYVKVDTIAPDESFSRLDAGRVNTKVRSFGPLSKAGFYLAFQDQGACMSLISVRAFYKKCASTTAGFALFPETLTGAEPTSLVIAPGTCIPNAVEVSVPLKLYCNGDGEWMVPVGACTCATGHEPAAKESQCRPCPPGSYKAKQGEGPCLPCPPNSRTTSPAASICTCHNNFYRADSDSADSACTTVPSPPRGVISNVNETSLILEWSEPRDLGGRDDLLYNVICKKCHGAGGASACSRCDDNVEFVPRQLGLTERRVHISHLLAHTRYTFEVQAVNGVSGKSPLPPRYAAVNITTNQAAPSEVPTLRLHSSSGSSLTLSWAPPERPNGVILDYEMKYFEKSEGIASTVTSQMNSVQLDGLRPDARYVVQVRARTVAGYGQYSRPAEFETTSERGSGAQQLQEQLPL",–,80
